The source of these data is patent US20220251211A1 (BEIJING SINOTAU BIO PHARMACEUTICALS TECHNOLOGY, published 2022).

In test [1] the target is T1, human PD-L1 on the cell surface (SP2/0 PD-L1 cells stably expressing human PD-L1); also human tumor cell lines … (human, UniProt Q9NZQ7 19-290).
T1 construct: whole, on cells; also called membrane huPD-L1; cell surface PD-L1
In words: flow cytometry, APC-labeled m1F11 on SP2/0 PD-L1 cells. In general terms: In flow cytometry, cells or beads pass a laser one at a time.

For test [2], the target named is T2, Human PD-L1-hFc (B3040, Biointron Biological Inc.) (human, UniProt Q9NZQ7 19-238, limits assumed).
T2 construct: also called recombinant human PD-L1-Fc; hu-PD-L1-Fc; not shown: human Fc of the bought fusion
T2 sequence (Q9NZQ7 19-238 limits assumed): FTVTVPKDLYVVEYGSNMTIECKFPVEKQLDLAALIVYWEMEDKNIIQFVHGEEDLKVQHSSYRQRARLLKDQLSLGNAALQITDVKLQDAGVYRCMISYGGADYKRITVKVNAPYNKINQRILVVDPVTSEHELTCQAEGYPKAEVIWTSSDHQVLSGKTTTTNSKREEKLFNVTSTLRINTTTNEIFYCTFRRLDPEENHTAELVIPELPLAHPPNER
Description: ELISA, recombinant human PD-L1, APC-labeled m1F11; recombinant human PD-L1, ELISA. On the technique in general: In an ELISA, binding on a coated surface is turned into a signal by an enzyme label.

For test [3], the target named is T3, Mouse PD-L1-his (50010-MO8H, Sino Biological) (mouse, UniProt Q9EP73 19-238).
T3 construct: Bought reagent; also called murine PD-L1; soluble mouse PD-L1; not shown: His tag
Description: ELISA, m1F11 on recombinant mouse PD-L1, luminescence as percent of the highest value.

The target of test [4] is T4, Cynomolgus PD-L1-his (90251-C08H, Sino Biological) (cynomolgus, UniProt G7PSE7 19-238).
T4 construct: Bought reagent; also called monkey PD-L1; soluble monkey PD-L1
T4 sequence (G7PSE7 entry or part of it C08H C08H limits assumed): as the sequence (Q9NZQ7 19-238 limits assumed) above, with A33T, A34S, S62N, R68Q, Q82R, F173L, T185A, T192I, H215L counted along it
In words: ELISA, recombinant cynomolgus PD-L1, APC-labeled m1F11.

The target of test [5] is T1, human PD-L1 on the cell surface (SP2/0 …). Description: flow cytometry, displacement of pre-bound biotin-huPD-1-hFc from SP2/0 PD-L1 cells, remaining PD-1 detected with streptavidin-FITC.
Test [6] addresses T3, Mouse PD-L1-his (50010-MO8H, Sino …). Description: ELISA, hu1F11 on soluble mouse PD-L1, luminescence as percent of the highest value. The text has this:
Y-axis is the relative luminescence index generated by antibody/antigen binding and x-axis is the logarithm of antibody concentrations (ng/ml).

The target of test [7] is T1, human PD-L1 on the cell surface (SP2/0 …). In words: flow cytometry on SP2/0 PD-L1 cells pre-incubated with biotin-huPD-1-hFc; bound antibody detected with anti-human kappa-APC.

B1: m1F11 (murine anti-PD-L1 antibody from hybridoma clone 1F11) (antibody, V domains shown)
VH: QGQMQQSGAELVKPGASVKLSCKTSGFTFSSSYISWLKQKSGQSLEWIAWIYAGTGGTGYNQKFTGKAQLTVDTSSSTAYMQFSSLTTEDSAIYYCAISASYRYDDLFAYWGQGTLVTVSA
VL: QIVLTQSPAIMSASPGEKVTMTCSASSSVSSMHWYQQKSGTSPKRWIYDTSKLASGVPARFSGSGSGTSYSLTISSMETEDAATYYCQQWNSNPPTFGAGTKLELK
notes: Recombinant murine antibody expressed in CHO-S cells and used APC-labeled in the assays; also called 1F11-APC; murine version 1F11
Broadly, the EC50 is the concentration giving half of the maximal effect. With B1, the EC50 stood at 0.0629 µg/mL in test [1], 0.0393 µg/mL in test [2] and 0.0464 µg/mL in test [4]. The binding result in test [3] is “no binding (tested: log 3.9 on the axis (about 8000 ng/ml))”.

B2: humanized 1F11 (hu1F11) (antibody, human IgG1, kappa, N297A, V domains shown)
VH: QVQLQQSGAELVKPGASVKLSCKTSGFTFSSSYISWVKQSSGQGLEWIAWIYAGTGGTGYNQKFTGRASITVDTSTSTAYMQLSSLTSEDTAIYYCAISASYRYDDLFAYWGQGTLVTVSS
VL: QIVLTQSPASVSASPGEKVTITCSASSSVSSVHWYQQKSGTSPKRWIYDTSKLASGVPARFSGSGSGTSYSLTISSMETEDVATYYCQQWNSNPPTFGTGTKLEIKR
notes: Expressed in 293T cells; also called huIF11; humanized IF11
For orientation: EC50 (read off the curve) means the midpoint of the concentration-response curve. On to B2, for which the “IC50 (read off the curve)” value in test [5] was around 0.9 µg/mL. In test [6], the binding result is “no binding (tested: log 3.6 on the axis (about 4000 ng/ml))”. Also, the “EC50 (read off the curve)” value in test [7] is around 0.3 µg/mL.
